The assay deals with bovine serum albumin (BSA) (bovine, UniProt P02769 25-607). The assay can be described thus: ELISA on BSA-coated microtitre plates, detection with peroxidase-labelled RGS-6xHis antibody. The procedure:
For the ELISA detection of the specific β2-glycoprotein-binding activity of the scFv-CAD reaction module, serial dilutions of scFv-CAD in the indicated concentration were applied to microtitre plates coated with β2-glycoprotein and, for control purposes, with bovine serum albumin (BSA). The binding was determined using a peroxidase-labelled RGS-6×-His antibody (Qiagen, Hilden) and a tetramethylbenzidine (TMB) colour reaction by measurement of the O.D. 450.
Characterisation of the binding reaction of the CAD-IgG-CH3-Knob02 modubody to the target β2-glycoprotein. […] The binding was determined using a peroxidase-labelled RGS-6×-His antibody (Qiagen, Hilden) and a tetramethylbenzidine (TMB) colour reaction by measurement of the O.D. 450 nm.
In order to determine whether the CAD-IgG-CH3-Knob02 modubody has retained the β2-glycoprotein-binding activity of the scFv-CAD, purified CAD-IgG-CH3-Knob02 preparations were tested by immunoassays. […] The microtitre plates were washed and the binding of the CAD-IgG-CH3-Knob02 modubody was determined using a peroxidase-labelled RGS-6×-His antibody (Qiagen, Hilden) and a tetramethylbenzidine (TMB) colour reaction by measurement of the O.D. 450 nm. […] Specific binding to β2-glycoprotein was detected even at a concentration of the CAD-IgG-CH3-Knob02 modubody of 19 ng/ml.

Two molecules from patent US20160046703A1 (ORGENTEC DIAGNOSTIKA, published 2016) can be followed below.

bovine serum albumin (BSA), sequence (P02769 25-607 limits assumed): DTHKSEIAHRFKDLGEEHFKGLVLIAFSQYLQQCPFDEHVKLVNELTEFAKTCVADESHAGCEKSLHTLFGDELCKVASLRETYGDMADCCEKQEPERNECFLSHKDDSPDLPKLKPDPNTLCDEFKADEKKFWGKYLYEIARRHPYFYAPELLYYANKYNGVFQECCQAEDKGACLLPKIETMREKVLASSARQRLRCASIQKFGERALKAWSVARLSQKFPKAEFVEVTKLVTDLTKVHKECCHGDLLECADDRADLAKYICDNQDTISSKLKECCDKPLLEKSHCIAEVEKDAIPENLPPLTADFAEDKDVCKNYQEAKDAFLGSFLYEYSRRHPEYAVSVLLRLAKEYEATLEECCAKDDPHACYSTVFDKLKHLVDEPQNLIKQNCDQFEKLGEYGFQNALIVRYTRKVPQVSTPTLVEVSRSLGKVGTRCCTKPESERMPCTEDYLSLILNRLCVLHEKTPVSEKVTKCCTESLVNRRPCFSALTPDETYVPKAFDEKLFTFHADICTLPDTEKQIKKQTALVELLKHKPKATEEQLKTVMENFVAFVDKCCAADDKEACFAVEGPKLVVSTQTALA

B1: single-chain CAD-IgG-CH3-Knob02 modubody (designed binder)
chain: LVPRGSDVLMTQTPLSLPVSLGDQASISCRSSQSIVHSNGNTYLEWYLQKPGQSPKLLIYKVSNRFSGVPDRFSGSGSGTDFTLKISRVEAEDLGVYYCFQGSHVPYTFGGGTKLEIKRTGSGSGGGGSGGGGSGGGGSSGGGGSGGGGSGGGGSGSGEVQLQQSGPELVKPGASVKISCKASGYTFTDYYMHWVRQRPGQGLEWIGEIYPGSGNTSYNEKFRGKATLTADKSSSTAYMQLSSLTSEDSAVYFCARGTLDYTMDYWGQGTSVTVSSGSGGGGSGGGGSGGGGSSGGGGSGGGGSGGGGSGSGEPQVYTLPPSREEMTKNQVSLYCLVKGFYPSDIAVEWESNGQPENNYKTYPPVLDSDGSFYLYSKLTVDKSRWQQGNVFSCSVMHEALHNHYTQKSLSL
notes: Domain order is VL-linker-VH-linker-IgG-CH3-Knob02, 44 kDa, made in E. coli; also called CAD-IgG-CH3-Knob32 (as misprinted once); not shown: RGS-6xHis tag from vector pQE-80L
Take B1: the binding result is “no binding (tested: 0.019-10 µg/ml)”.

B2: scFv-CAD β2-glycoprotein-binding module (artificial protein sequence scFv-RP-CAD-P) (scFv)
scFv: LVPRGSDVLMTQTPLSLPVSLGDQASISCRSSQSIVHSNGNTYLEWYLQKPGQSPKLLIYKVSNRFSGVPDRFSGSGSGTDFTLKISRVEAEDLGVYYCFQGSHVPYTFGGGTKLEIKRTGSGSGGGGSGGGGSGGGGSSGGGGSGGGGSGGGGSGSGEVQLQQSGPELVKPGASVKISCKASGYTFTDYYMHWVRQRPGQGLEWIGEIYPGSGNTSYNEKFRGKATLTADKSSSTAYMQLSSLTSEDSAVYFCARGTLDYTMDYWGQGTSVTVSS
notes: Expressed in E. coli from pQE-80L as a 30 kDa protein; also called CAD-scFv; scFV-CAD reaction module; not shown: RGS-6xHis tag from expression vector pQE-80L (detected with anti-RGS-6xHis antib)
In the case of B2, the binding result was “no binding (tested: 0.019-10 µg/ml)”.
